# From the DeepSol protein solubility set
# Assay: soluble on expression in E. coli; label from the status in PepcDB or PDB records
row,Sequence,soluble on expression in E. coli
1,MSLINKEILPFTAQAFDPKKDQFKEVTQEDLKGSWSVVCFYPADFSFVCPTELEDLQNQYEELQKLGVNVFSVSTDTHFVHKAWHDHSDAISKITYTMIGDPSQTITRNFDVLDEATGLAQRGTFIIDPDGVVQASEINADGIGRDASTLAHKIKAAQYVRKNPGEVCPAKWEEGAKTLQPGLDLVGKI,not soluble
2,MSFDGFFLHHLTNELKENLLYGRIQKVNQPFERELVLTIRNHRKNYKLLLSAHPVFGRVQITQADFQNPQVPNTFTMIMRKYLQGAVIEQLEQIDNDRIIEIKVSNKNEIGDAIQATLIIEIMGKHSNIILVDRAENKIIESIKHVGFSQNSYRTILPGSTYIEPPKTAAVNPFTITDVPLFEILQTQELTVKSLQQHFQGLGRDTAKELAELLTTDKLKRFREFFARPTQANLTTASFAPVLFSDSHATFETLSDMLDHFYQDKAERDRINQQASDLIHRVQTELDKNRNKLSKQEAELLATENAELFRQKGELLTTYLSLVPNNQDSVILDNYYTGEKIEIALDKALTPNQNAQRYFKKYQKLKEAVKHLSGLIADTKQSITYFESVDYNLSQASIDDIEDIREELYQAGFLKSRQRDKRHKRKKPEQYLASDGTTILMVGRNNLQNEELTFKMAKKGELWFHAKDIPGSHVIIKDNLDPSDEVKTDAAELAAYYSKARLSNLVQVDMIEAKKLHKPSGAKPGFVTYTGQKTLRVTPDQAKILSMKLS,not soluble
3,MGSDKIHHHHHHDKNSAPGFSFTTDSILTLTFDKELDAAFVGVGTQNYNPVGMRRSGDTLFIANRAEGSDGVWVVRASTGELLYSLTGWTYNGKNEKFDNQVMDVAVSSDYIFVVNRSSRIDLFRRNDYSYVTTIGRTGWQSSSLLQCEAAEVAGDKLFIRDKQKIKVVQISDCTPENRFKVPVFAQNTDSTSSNNGFNLESVARHEGLIYVSDYETSRILVIDPATVAVKGEPVRFLRSYRMPNKPLSMGFFQNEMYVVCANNCIVRVDLRTGKELGSYSSFAGGVGLGTPGRLLFHNDTFYLAGRNANAPRLIQGKVMFVEISELD,not soluble
4,SAASAALILPESPSMKKAVPLINAIDTGRFPRLLSRILQKLHLKAESSFSEEEEEKLQAAFSLEKQELHLVLETISFVLEQAVYHNVKPAALQQQLEMIHLRKDKAEAFASAWSAMGQETVEKFRQRILGPHKLETVGWQLNLQMAHSAQAKLQSPQAVLQLGVSKEDAKNVEKVLVEFNHKELFDFYNKLETIQAQLDSLT,soluble
5,MSIRAEEISALIKQQIENYQSEIEVSDVGTVIQVGDGIARAHGLDNVMAGELVEFSNGVMGLAQNLEENNVGIIILGPYTEIREGDEVRRTGRIMQVPVGKELIGRVVNPLGQPVDGLGPINTTNTRPIESPAPGVMDRKSVHEPLQTGIKAIDALVPIGRGQRELIIGDRQTGKTAVALDTIINQKDEDMICIYVAIGQKESTVRNVVETLRKHGALEYTIVVTASASQPAPLLYLAPYAGVTMGEEFMYNGKHVLVVYDDLSKQAAAYRELSLLLRRPPGREAYPGDVFYLHSRLLERAAKLSDAKGGGSLTALPFIETQAGDVSAYIPTNVISITDGQIFLQSDLFFSGVRPAIDAGTSVSRVGGSAQIKAMSKVSGTLRLDLASYRELEAFAQFGSDLDKATQAKLNRGARTVEVLKQGLHKPLRVEKQVIILYALTRGFLDDIPVVDITRFEEEFHAWLDSNATDLLEEIRTTKKLADDDKFAAAINGFKKVFVASE,not soluble
6,MTDARTTVVVITHNRCAEVLRTLDRLAELPERPAVIVTDNGSTDGTAAAVARHHPGVRLLRSGRNLGAVGRNLAVRQVTTPYVAFCDDDSWWAPGSLSGAADLLDRYPAVGSVTARILVEPEGTEDPIVEELRDSPVPRPDWLPGPALGSFLAAATVLRTDAFRAAGGFHPRLWLGGEEELLAADLAANGWWLTYAGQLTIHHHPSGVRDSTVRRSHGIRNTLWFTWLRRPVGPALRRTLHLARTVPRDTASLRAFAEATAALPWVLRERRVLPPEVEARLRALEPAQRDSTARSYTGLEHHHHHH,not soluble
7,MAITIQNHELQVTLKALGATMTSITDSQGVEYLWQGDATYWGGQAPILFPICGSVRNDCVIYRPAQAPHFTGIIPRHGFVRHKTFDYDYISDSSVRFTIKSSKEMLINYPYRFSLEITYTLRNKSIAITYIVKNLESEKNMPYAIGAHPGFNCPLFEKEVFSDYYLEFEQFETCTIPESFPDTGLLDLQARHPFLENQKQLSLNHALFEKDAITLDQLRSKTVYLKSRNHAKGIQLDFDDFENLILWTSNNGGPFLALEPWSSLSTSIEESDILEDKQNIVRLNPKQSKQHSIRITILLEHHHHHH,soluble
8,MSLKTPIFAQQTDPALTSAVLGQTAALKKVHKDRKKTQEKIIAAEVAVTASLERIHHVEDKMLDYLSNAQGAMQNLYQIKRAGELVAKEIPQNCSLLLKSVGGNLKGTVIAAMVSDELTDAATQMTALFPFMKQLVTSGKYDVTGDDGKNEKHKVNLLNASERYYIANEVVSRLEAINTNLFILAWQVRTLSWNDLWFSLDPEGWANVMSGKNIIGGIISDWNQGYSLKEGHHHHHH,soluble
9,SNAMILIDGKSLSKDLKERLATQVQEYKHHTAITPKLVAIIVGNDPASKTYVASKEKACAQVGIDSQVITLPEHTTESELLELIDQLNNDSSVHAILVQLPLPAHINKNNVIYSIKPEKDVDGFHPTNVGRLQLRDKKCLESCTPKGIMTMLREYGIKTEGAYAVVVGASNVVGKPVSQLLLNAKATVTTCHRFTTDLKSHTTKADILIVAVGKPNFITADMVKEGAVVIDVGINHVDGKIVGDVDFAAVKDKVAAITPVPGGVGPMTITELLYNTFQCAQELNR,soluble
10,MGSDKIHHHHHHMTQFDVLTIGNAIVDIISRCEDQFLEENGIVKGAMNLIDAERATRLYSLMGPAIEASGGSAGNTAAGIASFGGKAAYFGKVAEDELGEIFAHDIRAQGVHYQTMAKGQHPPTARCMIFVTEDGERSMNTYLGACVEFGPEDVEPEVVKQAKVTYFEGYLWDPPRAKQAIVDCARIAHEHGREMSMTLSDSFCVHRYRAEFLDLMRSGTVDIVFANRQEALALYETEDFDAALDQIAKDCKLAAVTMSEEGAMIIRGSERIHVPATTIAELVDTTGAGDLFASGFLYGYTQGRTLEECGKLGCLAAGLVIQQMGPRPLASLQEAAAEAGLI,not soluble
11,MAHHHHHHMRRWLRNVRGGLLHPRAARLMVSCGKTHGLHMVSTVSRNTETEDEEIRDNESFPHQDDDDESVTEISEEMMRSLPKAPPKLRSAGSLLSTEEQEQLTRMIFKAHYAGEGMGENDRAMWYQSALEIHWLEEWAYEEFDGQTQRDVARRAVKKAVLQRVDLHKPLAYIIGHQPFYGCDIRCSPPLLCPRPETEMWTHWLVRTWLSKIPETTQPLRVLDMCCGTGCVGIAIAKHVPSAQVTAVDILDEAIGASEENAKLNGLEASRFCTLKSDMFESFLVSNSGSLTGEDTKLDLKKKEPAAEHAGSFDIIVSNPPYVLPDQYTDLPPGIKLWESKLALVGDEKREQQQYLYFQELSEFGSLLLKPKAMRNPALCAAPNIVIEVGLQAEQVASVMEKSKLWENVEIHLDYAQQMRWITASSSH,not soluble
12,MGSDKIHHHHHHMLYTENLQSLIDSGKGYNVEFKVRVPSKVRELTEEICAFANADGGYLLIGVDDNGQVVDTNLENDKRSAIQGSISEISPALHCELYSVNVGNKTVWVIDVPSGKDKPYIFSGSIYVREGANSQKLRTAEEMRSFFQECNKIFFDHIPCHWFNIYTDADEQMIKGFRTEAKLSPSTPDKQIFENLELFIENGTAKNGAAMFFGKQPERKFPHAVTRCVLFKGTNKVYIIDDKTFGGSLYQQYLQAMSWLESKLQVAYKIEGAGPREEIWEIPLTVFKEAIINALSHRDYYEQGASIMIEMFDDRVEISNPGGLLPVVAKDFGHKSMTRNPLIFGLFTRMHLVERVASGIPRMQEAMREANLPEPEFHTEGMFTVVFKRKNTNSANRDIVNGIINGIVNENEQTILNLLKAKPGLNASEVAESLSKSWRTTMRYLKSLNDKGLVEFRGAPKTGGYYLTRNI,not soluble
13,MVAIIDASITRFGKRKESLLELAGEVALPLIGKYEIDFVVVSNSYSGEFNSLSGINNLITTYLSVDKVPSIRVDNTSGSGGSAILVAKSLLDSKITKTVLVLGVEKMSEKNTKQVTSVIASLLSPEEKIVGLTLPSLAGLMTKEYMRRYNASREAFALVAVKNHYNGSLNPFAHIQKVVSLEEVLNSPIIADPLTLYEFTPISDGASAIVMVRDEDAYSFTKKPVFI,not soluble
14,MRVVVCGGGVIGACAAYFLRRRGIDVTVVERTEVAAAASGKAGGFLARDWCTGTPLDALARRSFALHAQLPEDISGDWGYRPMTAYSGFVASDGDARRDAPSALGWLSDGVVIAQRIGTAETTAIVHPRKFTSAVMNAALAQGAELRPGRVTGITRGTDGMTAGGVEIDGDLVEADAVVIAMGPWSLLAAQWMSLPPVYGQRSPSIVYDTAADAPAEALFLESEEDGSAVSIEVFPRADGSTHITALSDIAPLPLDPAAVTPDRDAIARLQTVSERLSPLFRPERIIAQQACFRPVTQDGLPLIGKVPRSDGLYVATGHNVWGILNAPATGEALAELIAEGATREIDLSPFDPARLTPLDPSLLQARLEHHHHHH,not soluble
15,MGSDKIHHHHHHMSDAHYDMHKRNGYSSDEPYPEIKVLGPNKYYAELLMDDYAGVSSEFTSVNQYLYHNFDLDETHRELSEMWINISITEMLHMEILAKTIRLLGGNPVYRGSTSSCGAYWNGGFVCYGNSICNRLKLDLHLEHVAINNYYKDISLIEDPYIKAILNRIILDEKLHVSLFEKAIEKYCK,not soluble
16,MGHHHHHHSHMSCTVYAKTQQAKFLTWQFDGEYRGDDYTATLTLGNPDLIGESVIMVAHFLQSLTHRLVLGGELVYHRRPGEEGAILTLAGKYSAVHWVATLNVGSGGAHASYYHRANEQVQVGVEFEANTRLQDTTFSFGYHLTLPQANMVFRGLVDSNWCVGAVLEKKMPPLPVTLALGAFLNHWRNRFHCGFSITVG,not soluble
17,MGHHHHHHSHMQQAPVVLSTLDKLLNWGRSNSLWPLTYGLACCAIEMMATGGSRFDFDRFGTIFRASPRQSDVMIIAGTLTKKHAEFMRRLYDQMPEPKWVISMGSCANTGGMFNTYATVQGADRVVPVDIYLPGCAPRPETLQYALMVLQDKIRRSKAIKQDAPKRLV,not soluble
18,MSLKNYQSSDPFKEARVSSGCAHMNDQDDPVTMILRLKDVRKTAHNWKTFQSGAAPGRIVIPSEVNIRDTRQIPFEVDPPLHGAFRSLLDPWFKRPLKAQYQETLAQQVNALVDDVLKADSIDVVEDFALCLQSRALTLLLNTDADEADTWIGWGTHVFRSEDDPLDGDKAAILYDYIDEKIKASSPNPEGDLYSVLLAAEVEGKKLTHEEIKGIMILTFAGGRDTVINAVTNTVSYFAQHPESLARLRNEPEIIGRAIEELIRYFTPLTQMGRVVTQDTQVCEHAIKADSRVSLCWASANRDESVFESPNDVILDRKLNPHVSFGFSHHNCLGATHARQIMRVLIETLMAKVGSIDIIDFEENIEYLGEFERKVGFHKLHVNIHPREGHHHHHH,soluble
19,PHIDIKCFPRELDEQQKAALAADITDVIIRHLNSKDSSISIALQQIQPESWQAIWDAEIAPQMEALIKKPGYSMNA,soluble
20,MSSRNNPARVAIVMGSKSDWATMQFAAEIFEILDVPHHVEVVSAHRTPDKLFSFAETAEENGYQVIIAGAGGAAHLPGMIAAKTLVPVLGVPVQSAALSGVDSLYSIVQMPRGIPVGTLAIGKAGAANAALLAAQILAQHDAELHQRIADWRKAQTDEVLENPDPRGTL,not soluble
